According to publication PMC3563628, “Prevalence, Specificity and Determinants of Lipid-Interacting PDZ Domains from an In-Cell Screen and In Vitro Binding Experiments” (PLoS ONE, 2013):

What was measured:
[1] = molecular target: C-terminal peptide of usher (FTDTHL); test: Equilibrium peptide binding titration followed by intrinsic tryptophan fluorescence; details: Y167W mutation introduced as fluorescent probe; protein 3 µM; 25°C, pH 7.2
Excerpt: Given the overall low PtdInsPs specificities, and often modest PtdInsPs affinities, it is unlikely that PtdInsPs bindings alone target the PDZ domains to their defined subcellular compartments. Plausibly, peptide interactions are also involved in controlling the subcellular targeting. To address the interplay between PtdInsPs and peptide-binding we chose DFNB31_1 and CASK as models, taking two of the PDZ domains with well-defined cognate peptides. Cognate peptide ligands were the C-terminal peptides of usher (FTDTHL) for DFNB31_1 [50] and the TKEFYA peptide of syndecan-2 for CASK [51]. We measured the PDZ-peptide affinities by a fluorescence-based approach (Fig. 4E), by engineering Trp into the PDZ scaffolds and following the interactions by changes in intrinsic fluorescence, a strategy previously established for other PDZ domains (KD-values: DFNB31_1/Y167W for FTDTHL 46±6 µM; CASK/I157W for TKEFYA 280±20 µM), [52]. We then determined the apparent PtdIns(4,5)P2 affinities in presence of a (close to) saturating concentration of respective peptide (1 mM). The FTDTHL peptide appeared to compete for DFNB31_1-PtdIns(4,5)P2 interactions (KD ^PtdIns(4,5)P2 in presence of peptide >30 µM, Fig. 4F), which might indicate overlapping binding sites. […] We have previously reported on competitive binding by peptide and PtdIns(4,5)P2 with CASK [13]. However, in these experiments the peptide was linked to sepharose beads and PtdIns(4,5)P2 was present on micelles, which made it more difficult for the PDZ domain to simultaneously interact with the two ligands.
Spectrofluorimetric measurements were performed at 25°C in 25 mM HEPES, 150 mM NaCl, pH 7.2 and 1 mM beta-mercaptoethanol in a Carry Eclipse Spectrofluorimeter (Varian). The peptides corresponded to the C-termini of syndecan-2 (TKEFYA) and usher (FTDTHL) and were of high purity (purity >95%, GeneCust), and the experiment were performed and analyzed as described previously. Urea induced equilibrium unfolding experiments were performed using 1 µM of proteins (excitation 280 nm emission 320–380 nm) and the data fitted by a standard two-state model.

[2] = SPR binding to PS liposomes; details: 10% PS in DOPC, 100% DOPC as reference
Excerpt: (§1) As an alternative in vitro approach we performed lipid blot assays using commercially available membranes pre-spotted with PtdIns, PtdIns4P, PtdIns(4,5)P2 and PtdIns(3,4,5)P3 as well as other abundant lipids (Fig. 4B–C). IL16_3 and PDZD2_3, were excluded from this analysis due to their high binding to the blank immobilized spot. […] Other PtdInsPs-PDZ interactions were confirmed. Discrepancy between SPR and lipid blot approaches can be easily explained by the fact that the latter method is highly koff-dependent. […] We therefore performed SPR experiments with five selected PDZ domains (CASK, DFNB31_1, MAGI1_6, MAGI3_3 and SLC9A3R2_1) and two selected lipids, PS and PE, embedded in DOPC liposomes (10% PS or 40% PE in a DOPC using 100% DOPC as reference). […] We have previously reported that weak electrostatic interactions with PS reinforce the interactions of the second PDZ domain of Polychaetoid with PtdIns(4,5)P2 containing liposomes. We therefore investigated, for the same five PDZ domains, how the apparent PtdIns(4,5)P2 affinities were affected by presenting the lipid in the background of liposomes mimicking biological membrane lipid composition ([…], 20% PS, 40% PE and 5% PtdIns(4,5)P2).
(§2) SPR experiments were performed in a BiacoreT100 (GE Healthcare) at 25°C in 25 mM HEPES, 150 mM NaCl, pH 7.2 and 1 mM beta-mercaptoethanol with a flow rate of 30 µl/min. […]

[3] = SPR binding to PtdIns(4,5)P2 in composite liposomes mimicking biological membrane; details: 30% PC, 20% PS, 40% PE and 5% PtdIns(4,5)P2
Excerpt: as §1, §2

[4] = SPR equilibrium binding of his-tagged PDZ domains to various PtdInsPs species; details: recombinant PDZ domain over PtdInsPs liposomes
[5] = SPR equilibrium binding of his-tagged PDZ domains to PtdIns(4,5)P2 liposomes; details: SPR equilibrium analysis, 5% PtdIns(4,5)P2 in DOPC liposomes, 25°C, pH 7.2; read-out: KD app PtdIns(4,5)P2
[6] = SPR binding to PE liposomes; details: 40% PE in DOPC, 100% DOPC as reference
Excerpt: as §1, §2

- Kd [1]: 46 ± 6 µM
- PS binding, in words [2]: low affinity interactions
- Kd [3]: 2.7 ± 1 µM
- PtdInsPs binding in vitro, in words [4]: high-affinities
- Kd [5]: 7.8 ± 2 µM
B1: DFNB31_1: recombinant his-tagged first PDZ domain of human DFNB31 (protein)
chain: GEVRLVSLRRAKAHEGLGFSIRGGSEHGVGIYVSLVEPGSLAEKEGLRVGDQILRVNDKSLARVTHAEAVKALKGSKKLVLSVYSAGRI
modifications: left off: His6, N-terminal, state not stated
notes: recombinant his-tagged first PDZ domain of human DFNB31
- PE binding, in words [6]: did not observe any detectable PDZ-PE binding
